Experimental data as given in US20210371467A1.

Columns and labels:
[1] = target: Npu^C-CFN (Nostoc puminciforme PCC73102 (Npu)); assay: cell-based or functional assay
[2] = target: Ssp^C A136S-CFN (Synechocystis Species PCC6803 (Ssp)); assay: cell-based or functional assay

Sequence of Npu^C-CFN (Nostoc puminciforme PCC73102 (Npu)) (chain, as listed by the source): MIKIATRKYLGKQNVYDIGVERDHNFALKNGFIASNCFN

protein trans-splicing half-life (t1/2) at 30° C., in vitro PTS assay [1]: 50 s | rate of branch resolution [2]: 2 fold
Substance: Npu^N (AEY-Npu^N, product of plasmid 2 after cleavage of the His6-SUMO tag)
